# Data published in IntAct's records for PubMed 19513107.
# B1: STE20-related kinase adapter protein alpha (Homo sapiens), Q7RTN6-1 (parent)
# chain: MSFLVSKPERIRRWVSEKFIVEGLRDLELFGEQPPGDTRRKTNDASSESIASFSKQEVMSSFLPEGGCYELLTVIGKGFEDLMTVNLARYKPTGEYVTVRRINLEACSNEMVTFLQGELHVSKLFNHPNIVPYRATFIADNELWVVTSFMAYGSAKDLICTHFMDGMNELAIAYILQGVLKALDYIHHMGYVHRSVKASHILISVDGKVYLSGLRSNLSMISHGQRQRVVHDFPKYSVKVLPWLSPEVLQQNLQGYDAKSDIYSVGITACELANGHVPFKDMPATQMLLEKLNGTVPCLLDTSTIPAEELTMSPSRSVANSGLSDSLTTSTPRPSNGDSPSHPYHRTFSPHFHHFVEQCLQRNPDARPSASTLLNHSFFKQIKRRASEALPELLRPVTPITNFEGSQSQDHSGIFGLVTNLEELEVDDWEF
# partner: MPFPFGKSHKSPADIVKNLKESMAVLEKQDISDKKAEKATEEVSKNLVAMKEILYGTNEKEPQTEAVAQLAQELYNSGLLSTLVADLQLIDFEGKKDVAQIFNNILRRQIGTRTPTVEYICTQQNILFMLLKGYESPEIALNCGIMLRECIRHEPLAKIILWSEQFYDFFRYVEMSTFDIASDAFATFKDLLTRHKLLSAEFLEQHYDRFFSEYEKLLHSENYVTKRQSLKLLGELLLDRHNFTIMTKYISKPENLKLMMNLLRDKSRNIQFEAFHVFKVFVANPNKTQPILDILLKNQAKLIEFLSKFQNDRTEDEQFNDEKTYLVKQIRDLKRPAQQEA
# B2: Calcium-binding protein 39 (Homo sapiens), Q9Y376 (parent)
# chain: B1 partner
# partner: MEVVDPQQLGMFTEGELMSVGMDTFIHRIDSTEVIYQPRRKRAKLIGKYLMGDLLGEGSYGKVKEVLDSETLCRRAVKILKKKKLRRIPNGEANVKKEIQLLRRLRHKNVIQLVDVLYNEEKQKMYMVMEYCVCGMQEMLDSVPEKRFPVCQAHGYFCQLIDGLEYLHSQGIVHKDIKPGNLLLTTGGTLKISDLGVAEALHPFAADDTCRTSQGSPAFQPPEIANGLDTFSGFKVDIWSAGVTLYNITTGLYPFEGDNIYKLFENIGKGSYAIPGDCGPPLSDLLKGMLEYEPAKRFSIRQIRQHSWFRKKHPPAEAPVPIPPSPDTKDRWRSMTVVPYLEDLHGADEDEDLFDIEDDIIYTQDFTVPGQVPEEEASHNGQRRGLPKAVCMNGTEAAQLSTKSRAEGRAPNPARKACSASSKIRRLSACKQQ
# B3: STE20-related kinase adapter protein alpha (Homo sapiens), Q7RTN6-1 (parent)
# chain: B1 chain
# partner: B2 partner
# B4: Calcium-binding protein 39 (Homo sapiens), Q9Y376 (parent)
# chain: B1 partner
# partner: B1 chain
# Variants of: B1
# Conditions: with cab39_human CAB39, Q9Y376
row,Variant,effect of a mutation on the interaction
1,N109A,decreasing interaction
2,E105A,disrupting interaction
3,I138Q,disrupting interaction
4,N126G,decreasing interaction
5,Y185F,disrupting interaction

# Variants of: B2
# Conditions: with stk11_human STK11, Q15831
row,Variant,effect of a mutation on the interaction
1,R227A;R240A,disrupting interaction
2,R227A;R240A;M260A,disrupting interaction

# Variants of: B3
# Conditions: with stk11_human STK11, Q15831
row,Variant,effect of a mutation on the interaction
1,G76D;G78D;K197E,disrupting interaction
2,G76D;G78D;K197E;R215E,disrupting interaction
3,G76D;G78D;R215E,decreasing interaction

# Variants of: B4
# Conditions: with STRADA
row,Variant,effect of a mutation on the interaction
1,E93A,disrupting interaction
2,F92A,disrupting interaction
3,K96A,disrupting interaction
4,M260A,disrupting interaction
5,F178A,disrupting interaction
6,Q228A,disrupting interaction
7,Y223A,disrupting interaction
8,S182A,disrupting interaction
9,R107A,disrupting interaction
10,I145A,disrupting interaction

# Variants of: B4
# Conditions: with STRADA
# Remark: another data set of the same source
row,Variant,effect of a mutation on the interaction
1,R227A;M260A,disrupting interaction

# Variants of: B4
# Conditions: with STRADA
# Remark: another data set of the same source
row,Variant,effect of a mutation on the interaction
1,R227A,disrupting interaction
